From the supplement of paper PMC12042874
± gives the uncertainty stated by the source.

Assay: amyloid nucleation score (Sup35N fusion, yeast selection) (log enrichment); library NNK1; higher = more nucleation; inactive = no reads after selection
Procedure, shortened: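 Plasmid inserts were Illumina-sequenced at input and output from psi-negative yeast expressing Sup35N fused to peptides of 20 random codons. The yeast were induced with 100 μM copper sulfate for 24 hours and grown 7 days at 30°C on medium lacking adenine and uracil, and sequences with under 100 input reads were excluded. Nucleation score is the DiMSum log enrichment of output over input reads, centred on the mode score of non-aggregating sequences.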

| Substance | amyloid nucleation score |
| --- | --- |
| YSYSGVRMVVILNWHGKWWC | 4.87 ± 0.096 |
| VNDYWNFCYVCWKYQSIILY | 3.14 ± 0.18 |
| TRCPV | 0.253 ± 0.66 |
| EQASVIKDVYFPHILRLRMA | -0.432 ± 0.4 |
| TLNLWSAWLLFPYDLAGIFY | -0.199 ± 0.33 |
| SVWCSFFVNAADHNIYRTIT | 1.11 ± 0.15 |
| IYEMVGLTNVEFWYTKKYCS | -0.003 ± 0.18 |
| EHNNFFICVCWSAGTSVRMI | 7.992 ± 0.063 |
| NDYEELIMYFKEDVF | 1.76 ± 0.5 |
| NRCCVPTKATN | 0.27 ± 0.53 |
| LSTYAGCRNAWPELQ | -0.52 ± 0.4 |
| GTLPLKDKGPYRDL | -1.08 ± 1.4 |
| LTTQIVIFFCWVCKDINCCK | 4.88 ± 0.081 |
| TKSMEPSGR | 0.046 ± 0.52 |
| FFVLRLSLTFWSCKS | 1.3 ± 0.56 |
| LELTIRVRNSIVI | inactive |
| INFCRSPMPWNGSALVNLMV | -0.014 ± 0.53 |
| SNPYVWDVPLSRLWFVSWEL | 0.068 ± 0.65 |
| QRIGHLVLDSVGRTSCVMGA | 0.386 ± 0.41 |
| NKWSRSGKRCAKMGNSCSDE | 1.49 ± 0.69 |
| HRSSNVSGLVWSFHRMKYVI | 0.599 ± 0.79 |
| GEDGG | 0.148 ± 0.52 |
| SLWTLWGFSFGDT | -0.458 ± 0.47 |
| YYKCMATQVVGLLMSVWATY | 1.06 ± 0.85 |
| WWVGCRACLPWDASSGKLLG | 0.139 ± 0.34 |

| Substance | amyloid nucleation score |
| --- | --- |
| LNHIRRTVR | 1.23 ± 0.53 |
| PWGTCQQYRYTFWPVSAC | -0.412 ± 0.92 |
| ILDHT | 0.267 ± 0.33 |
| RGRVSNY | -0.455 ± 1.4 |
| HLILGLL | -0.54 ± 0.47 |
| TFIITSRFLYSDVAT | -1.33 ± 0.45 |
| SNFLFRCSIWDDMGGKCRSK | inactive |
| SHTWKGTSCAFAMHAQRGSQ | inactive |
| ASPHWGSCNKTLRDGPRQVL | -0.677 ± 0.65 |
| VDMNWVITGTNWEFRLRVDA | 0.24 ± 0.43 |
| LVSRRSGHKYYGTTTDCCKN | inactive |
| GMDTYLMETLCSTVNLRCHA | -0.604 ± 1 |
| PMAVRLSYCCNRIYVLY | 4.47 ± 0.097 |
| PCGEKD | 0.559 ± 0.9 |
| YFYDVMNLRCLVFNKSWFVL | 0.119 ± 0.51 |
| RQARFSFDLRFP | 0.567 ± 0.35 |
| FAWGGFC | -0.155 ± 0.86 |
| TSASYRADVWDDGNVLYRLW | inactive |
| SARSWDLQMCFSCLYR | 7.28 ± 0.08 |
| RSNCDFLSNNYGFLFGFLSQ | 0.525 ± 0.44 |
| IVNSKCRFWYYINGTVIFFL | 6.331 ± 0.059 |
| CNRPGF | -0.249 ± 0.44 |
| YVRGSGMAPGD | inactive |
| DGSCKLYVVFRPAVLGHGHS | 1.05 ± 0.85 |
| YSLVDTTLVILS | 0.226 ± 0.36 |

| Substance | amyloid nucleation score |
| --- | --- |
| DQRVDR | 0.107 ± 0.89 |
| FLIFKSCLVGILRSSNKIGC | -0.469 ± 1.1 |
| REGATIPWFRCNRLE | -0.167 ± 0.33 |
| VACLKRW | -0.29 ± 0.42 |
| SRYYASMYLGNYGWHVLLNW | -0.103 ± 0.23 |
| FIMVCGSKGLLVALGALE | -0.752 ± 1.3 |
| YWSVQG | 0.647 ± 0.75 |
| LNQPWYIRIQANIDFNR | 4.47 ± 0.079 |
| GVQAVNVEVVNEVCLVKEAT | -0.153 ± 0.46 |
| LSVRDVLYGHVRWVGWGGVK | 0.886 ± 0.64 |
| LWNIMVLDIWDRDLCSCIWG | 0.756 ± 0.56 |
| TCNGCGGHRMFWYK | 0.099 ± 0.55 |
| FAWEVKTDYRWYNPWLGRAC | -0.838 ± 2.1 |
| SGKCIFSFE | -0.065 ± 0.34 |
| IRLGHIQVFVSGRFENRLIF | 0.257 ± 0.56 |
| CNYSSSTVGYRSDMRVCSDT | 0.405 ± 0.61 |
| HFFVVNQSYPNHFHLLGI | 5.05 ± 0.094 |
| LNLTMVGIYINDFL | 4.69 ± 0.099 |
| KIRVDRFNIRSCDIGSDLCY | -1.07 ± 0.43 |
| CLQWPEYPDYSVGGAFRRTG | -0.311 ± 0.48 |
| SGGCMDSKLSAVG | 0.894 ± 0.51 |
| LGLFCESYDEADCRTEDSAC | 0.254 ± 0.3 |
| VTSDLLD | 0.283 ± 0.4 |
| CVGSIKVNSLSRLFCHLLCV | -0.187 ± 1.2 |
| TSAGKYHSSIILLYLWDYVT | 0.845 ± 0.41 |

| Substance | amyloid nucleation score |
| --- | --- |
| NWDGLYVYEYSRFVVASCRN | 1.2 ± 0.2 |
| YYLQLIYMHKNRMLISCVCC | inactive |
| AVGYYCKSINRKHFIVEKLQ | -0.298 ± 0.4 |
| AFFPGNFWACGSFDFLWYWL | 3.38 ± 0.083 |
| FVTDMAYNMMESGLHT | 6.44 ± 0.044 |
| VSRYLWIIGRGWVN | 0.412 ± 0.39 |
| NYAAPVSCRGLADEGRSRTD | -0.4 ± 0.49 |
| VGNRRYNTSVMALSNQRNTR | 0.636 ± 1 |
| YTEETYKLCVWMSDRSIRLN | 0.001 ± 0.85 |
| NGVSTVEYVMFKFSIAFAMF | 6.583 ± 0.046 |
| LCGDHLFWLDVGDAVGVFLA | 0.176 ± 0.4 |
| YYGFWICFNYVGTGVKISCA | 3.38 ± 0.075 |
| SIHVVVTQLALISLLNVKSV | inactive |
| NGTTLVAVSYELPLSGVLSK | -0.798 ± 0.57 |
| VYRRIYNFECWSSKCMLGYP | -0.129 ± 1.6 |
| SGSVTVCGIATTPCNMGDRK | 0.405 ± 0.79 |
| NGCDIFSFGFYLLILFSLIQ | -0.196 ± 0.49 |
| WNDRSGDVSLPCS | 0.027 ± 0.61 |
| VKLCRACCYEYWRHHSPLGC | 0.594 ± 0.43 |
| KSKRWELLPFEVRAARAVGQ | -0.024 ± 0.3 |
| FFMLGSSY | inactive |
| DTLDLQLRNVRLTRACMAQY | 0.329 ± 0.34 |
| FVMLFSCRST | 0.38 ± 0.76 |
| FTSLWDCALTHVVTFPAILG | -1.36 ± 1.8 |
| LRFRFSLANAEGLMLPVRHK | -0.216 ± 0.48 |

| Substance | amyloid nucleation score |
| --- | --- |
| VDRILFNVLAVSFDMELRSL | 0.224 ± 0.24 |
| SYIQLMSMMIFAHMTANRRN | 1.9 ± 0.42 |
| KVPDALFVDRLLYQVISCIH | 3.47 ± 0.084 |
| EGYVK | 1.1 ± 0.53 |
| IVFFQEDGSWAEWFVGEVLT | 0.557 ± 0.42 |
| GDISYVSASLQLFNWVLSCV | 3.97 ± 0.13 |
| KASCVVLAMLWLVLALGEPG | 0.116 ± 0.81 |
| FVFFSLGHLAFFARDRYSPW | 2.38 ± 0.094 |
| TRNVQHRIRSKSTISDKQIF | inactive |
| LSVVSWICRFDALQGHSCVK | -0.561 ± 0.41 |
| ILSSGGEKDFNSLYT | -0.105 ± 0.47 |
| TTRMRRRY | 1.89 ± 0.56 |
| RLWYGRSPWELVTIRSQARG | 0.14 ± 0.31 |
| ASGSI | -1.32 ± 2.4 |
| AHLEGYYHWHYSEFWSVVVK | -0.437 ± 0.31 |
| ASFASKARHKR | 0.728 ± 0.87 |
| LITWCIVVAWCIIVTREA | 2.84 ± 0.12 |
| IEGDFEFGVNVSRAARDMRV | -0.856 ± 0.94 |
| LKLLFVTLKMLASMFFRGS | -1.28 ± 0.77 |
| SITVKKES | 0.254 ± 0.62 |
| RPWAWPRCRSCAST | 0.689 ± 0.37 |
| PTMSLIDGIVGKLMDSRVGT | -0.11 ± 0.32 |
| QRLFRYNPTKSRGLCNNTWA | 0.59 ± 0.22 |
| CCWNNSLS | inactive |
| LRGFESTRETVLGSMQQWCL | 1.03 ± 0.56 |

| Substance | amyloid nucleation score |
| --- | --- |
| NQYLDVGVRKSNAECKVPHE | inactive |
| HNHSTYFHYRFGVSLVLTSR | 2.29 ± 0.38 |
| IKRLFWDWLGDRDLGRMSTP | inactive |
| NLDFLLFGIECIVKTCPFGY | 0.01 ± 0.44 |
| LFDARDSRFSCRYVMRRVWV | 0.195 ± 0.25 |
| LTWLL | 0.992 ± 0.97 |
| VGRRNKVAWVKLRHEVRRCV | 0.106 ± 0.52 |
| SFWWSDATMFEFVKGSRSGK | inactive |
| WSISGELFTVVSDWPFCPIG | inactive |
| NECSGGLQKLLNRTTNSDLW | 0.185 ± 0.33 |
| AGYFCL | -0.449 ± 0.47 |
| RFFRISWIFMSDSRPTRSDF | 0.793 ± 0.84 |
| MEAWRHSTSACSDGA | -0.245 ± 0.39 |
| RCRYVRLETSLC | -0.083 ± 0.47 |
| SVLNSDCNCGIKSWFTDIIM | 1.96 ± 0.4 |
| DRWRSL | -0.582 ± 0.96 |
| CSDRVKTLSFCWSPSVVFW | -0.636 ± 0.95 |
| SYQCGENYMFAYVNWSVGGN | 0.548 ± 0.84 |
| FRVYVSCVLCNDCVVYHRFE | 7.602 ± 0.072 |
| LLFCRFRSWDRDHRWCRCD | 1.95 ± 0.66 |
| WNYRGIKYF | 0.129 ± 0.39 |
| SALIAMYYHSSGTMWIQYFC | 0.145 ± 0.83 |
| LMYWLLLMEIRYNLKPLNRL | 2.29 ± 0.084 |
| GYGLSAL | 1.08 ± 0.73 |
| RSCGMTVGACSYVACVSYCT | 6.02 ± 0.066 |

| Substance | amyloid nucleation score |
| --- | --- |
| FLYDYYG | inactive |
| FDHSG | inactive |
| GEFTRGDTSKWFLLDK | 0.577 ± 0.56 |
| CTVKLLMCQAISLTCSLGFF | 0.534 ± 0.56 |
| FKTDRGTRHFDFYYCV | 0.395 ± 0.21 |
| CFGRRRVRIELGTAWPFSVL | -0.754 ± 1.1 |
| CQDGLDNLNCGAMVYFVVGD | 2.25 ± 0.22 |
| VYTWPTICNCQRL | 0.128 ± 0.36 |
| LPTVDMIWIRGFGFQELSWC | inactive |
| LEFVYNH | 1.44 ± 0.74 |
| LGSAAISLIVLFLG | 2.64 ± 0.27 |
| GPLKPFNASLVGTGAVLHGE | 0.034 ± 0.52 |
| NTKSTPNTSVLFSLTTRI | 1.3 ± 0.15 |
| PQSHQKTRTFLFMRSTSSMW | -0.847 ± 0.52 |
| LSQIWIKSPGFAKDFTPILC | 0.045 ± 0.36 |
| LYAVLDILVMFMLMSPP | 0.253 ± 0.36 |
| SGEVLRPFAVLC | -0.061 ± 0.3 |
| PIRPWAHYGMANWVQKAF | -0.763 ± 0.52 |
| ASDLGATKHNLHFIACIFSL | 4.77 ± 0.074 |
| IYRSHRMPKSTRTLV | -1.16 ± 1.9 |
| MCMQKVL | -0.263 ± 1.4 |
| TGWQCYSRANVVD | -0.98 ± 0.51 |
